Values quoted from earlier work in publication PMC10453832.

Target: F-actin (Oryctolagus cuniculus) (UniProt P68135)

Kd: 75 nM
Substance: β-III-spectrin ABD (from UniProt O15020)
